Results from article PMC6938703 (Science Advances, 2020).

Tests used:
crystal structure = molecular target: the molecule itself; assay: crystal structure
SEC-MALS = molecular target: the molecule itself; assay: SEC-MALS

| Protein | binding result (crystal structure) | binding result (SEC-MALS) |
| --- | --- | --- |
| Selenomethionine-substituted dARC1 CA (residues S39 to N205) (domain or fragment, D. melanogaster, selenomethionine in place of methionine) SRGKGNFSACTHSFGGTRDHDVVEEFIGNIETYKDVEGISDENALKGISLLFYGMASTWWQGVRKEATTWKEAIALIREHFSPTKPAYQIYMEFFQNKQDDHDPIDTFVIQKRALLAQLPSGRHDEETELDLLFGLLNIKYRKHISRHSVHTFKDLLEQGRIIEHNNPLE | binds |  |
| dARC1 CA F133A (domain or fragment, D. melanogaster) SRGKGNFSACTHSFGGTRDHDVVEEFIGNIETYKDVEGISDENALKGISLLFYGMASTWWQGVRKEATTWKEAIALIREHFSPTKPAYQIYMEFAQNKQDDHDPIDTFVIQKRALLAQLPSGRHDEETELDLLFGLLNIKYRKHISRHSVHTFKDLLEQGRIIEHNNPLE |  | binds |
